PMC9023295, “NMR-derived secondary structure of the full-length Ox40 mRNA 3′UTR and its multivalent binding to the immunoregulatory RBP Roquin” (Nucleic Acids Research, 2022)

Legend:
[1] = biological target: T1, Roquin-1 extROQ (mouse, UniProt Q4VGL6 89-404); test: EMSA; conditions: EMSA: 150 mM NaCl, 20 mM Tris pH 7.0, 2 mM TCEP, 1 mM MgCl2, 0.6 ug yeast tRNAPhe per 20 ul, 15 min, temperature not stated, gel in 1x TB
T1 sequence: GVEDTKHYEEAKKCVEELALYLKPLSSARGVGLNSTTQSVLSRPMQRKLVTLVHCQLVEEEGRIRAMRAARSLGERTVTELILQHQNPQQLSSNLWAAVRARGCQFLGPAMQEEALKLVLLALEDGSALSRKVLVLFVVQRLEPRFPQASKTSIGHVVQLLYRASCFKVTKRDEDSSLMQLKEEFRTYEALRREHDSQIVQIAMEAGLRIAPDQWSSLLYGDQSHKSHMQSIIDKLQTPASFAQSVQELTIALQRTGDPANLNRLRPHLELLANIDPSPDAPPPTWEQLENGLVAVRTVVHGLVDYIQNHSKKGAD

[2] = tested on: Roquin-1 N-term (mouse); test: EMSA; conditions: first binding event; EMSA: 150 mM NaCl, 20 mM Tris pH 7.0, 2 mM TCEP, 1 mM MgCl2, 0.6 ug yeast tRNAPhe per 20 ul, 15 min; temperature not stated; gel in 1x TB
[3] = tested on: Roquin-1 N-term A-site mutant (Amut) (mouse); test: EMSA; conditions: EMSA: 150 mM NaCl, 20 mM Tris pH 7.0, 2 mM TCEP, 1 mM MgCl2, 0.6 ug yeast tRNAPhe per 20 ul, 15 min; temperature not stated; gel in 1x TB
[4] = biological target: T2, Roquin-1 coreROQ (mouse, UniProt Q4VGL6 171-326); test: EMSA; conditions: EMSA: 150 mM NaCl, 20 mM Tris pH 7.0, 2 mM TCEP, 1 mM MgCl2, 0.6 ug yeast tRNAPhe per 20 ul, 15 min, temperature not stated, gel in 1x TB
T2 sequence: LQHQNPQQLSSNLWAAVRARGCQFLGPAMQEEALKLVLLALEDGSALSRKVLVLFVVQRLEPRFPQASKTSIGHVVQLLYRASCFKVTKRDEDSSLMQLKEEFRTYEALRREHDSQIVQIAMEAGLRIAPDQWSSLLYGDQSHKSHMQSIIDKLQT

[5] = biological target: the molecule itself; test: SAXS; protein alone, concentration series 50, 100, 200, 300 uM; 150 mM NaCl, 20 mM Tris pH 7.0, 2 mM TCEP; 293 K; molecular weight by the Bayesian approach; monomer to dimer
[6] = biological target: T1, Roquin-1 extROQ; test: EMSA; triplicate; EMSA: 150 mM NaCl, 20 mM Tris pH 7.0, 2 mM TCEP, 1 mM MgCl2, 0.6 ug yeast tRNAPhe per 20 ul, 15 min; temperature not stated; gel in 1x TB; conditions: protein: recombinant; tags: tag removed by TEV; label: 5' 32P (EMSA); hairpin, apical hexaloop
[7] = biological target: T2, Roquin-1 coreROQ; test: as above; conditions: protein: recombinant; tags: tag removed by TEV; label: 5' 32P (EMSA); hairpin, apical hexaloop
[8] = biological target: T1, Roquin-1 extROQ; test: EMSA; 2:1 stoichiometry; EMSA: 150 mM NaCl, 20 mM Tris pH 7.0, 2 mM TCEP, 1 mM MgCl2, 0.6 ug yeast tRNAPhe per 20 ul, 15 min; temperature not stated; gel in 1x TB; conditions: protein: recombinant; tags: tag removed by TEV; label: 5' 32P (EMSA)
[9] = biological target: T1, Roquin-1 extROQ; test: EMSA; single binding event; EMSA: 150 mM NaCl, 20 mM Tris pH 7.0, 2 mM TCEP, 1 mM MgCl2, 0.6 ug yeast tRNAPhe per 20 ul, 15 min; temperature not stated; gel in 1x TB; conditions: protein: recombinant, tags: tag removed by TEV, label: 5' 32P
[10] = biological target: T1, Roquin-1 extROQ; test: EMSA; two-step, comparable to WT ADE-CDE; EMSA: 150 mM NaCl, 20 mM Tris pH 7.0, 2 mM TCEP, 1 mM MgCl2, 0.6 ug yeast tRNAPhe per 20 ul, 15 min; temperature not stated; gel in 1x TB; conditions: protein: recombinant; tags: tag removed by TEV; label: 5' 32P; two hairpins

Ox40 tandem ADE-CDE
Kd ([1]; first binding event): 59 nM
Kd ([1]; second binding event): 180 nM
Kd [2]: 78 nM
Kd [3]: 593 nM
Kd ([4]; transitions not resolved): 379 nM

Ox40 CDE
Kd ([1]; triplicate): 149 nM
Kd ([4]; triplicate): 460 nM

B1: Roquin-1 amino-terminal part (N-term, residues 1-454) (domain or fragment, murine, UniProt Q4VGL6 1-454, looked up)
chain: MPVQAPQWTDFLSCPICTQTFDETIRKPISLGCGHTVCKMCLNKLHRKACPFDQTTINTDIELLPVNSALLQLVGAQIPEQQPITLCSGVEDTKHYEEAKKCVEELALYLKPLSSARGVGLNSTTQSVLSRPMQRKLVTLVHCQLVEEEGRIRAMRAARSLGERTVTELILQHQNPQQLSSNLWAAVRARGCQFLGPAMQEEALKLVLLALEDGSALSRKVLVLFVVQRLEPRFPQASKTSIGHVVQLLYRASCFKVTKRDEDSSLMQLKEEFRTYEALRREHDSQIVQIAMEAGLRIAPDQWSSLLYGDQSHKSHMQSIIDKLQTPASFAQSVQELTIALQRTGDPANLNRLRPHLELLANIDPSPDAPPPTWEQLENGLVAVRTVVHGLVDYIQNHSKKGADQQQPPQHSKYKTYMCRDMKQRGGCPRGASCTFAHSQEELEKFRKMNKRLV
notes: Roquin-1, murine, structured amino-terminal part with RING, ROQ and ZnF domains, residues 1-454 (theoretical MW 51.09 kDa); also called Roquin N-term; WT N-term; source: E. coli BL21 (DE3), expressed with 100 uM ZnCl2, purified (Ni-NTA, TEV cleavage, reverse Ni-NTA, SEC)
binding result [5]: binds

GCCUGCCAGUACCCUCCACACCGUUCUAGGUGCUGGGCUGGCUCUGGGC (structured_RNA) [Ox40 ADE]
Kd [6]: 171 ± 17 nM
Kd [7]: 232 ± 29 nM

B2: Ox40 full-length 3'UTR (structured_RNA)
RNA: GCAUUACUACAGGAGUGGAUUUUAUGGGGCACGGACAACCCAUAUCCUGAUGCCUGCCAGUACCCUCCACACCGUUCUAGGUGCUGGGCUGGCUCUGGGCUUUCCUAUGUAUGCUAUGCAUACUACCUGCCUGGUGGUGCUCCUAAUAAACAUGCUA
Kd [8]: 63 ± 9 nM

B3: Bulge-CDE (structured_RNA)
RNA: GGAUUUUAUGGGGCACGGACAACCCAUAUCCUGAUUUUCCUAUGUAUGCUAUGCAUACUAC
Kd [9]: ~70.7 nM

GUAUUUAUGAUUUCCUAUGUAUGCUAUGCAUACUAC (structured_RNA) [extCDE]
Kd ([9]; 5' single strand plus hairpin): ~50 nM

B4: ADE-u-CDE (structured_RNA)
RNA: GCCUGCCAGUACCCUCCACACCGUUCUAGGUGCUGGGCUGGCUCUGGGCUGUAUGCUAUGCAUACUAC
binding result [10]: binds
